Earlier results as cited in PMC6440808.
Read-outs that look alike come from different tables or passages of the source.

Experiments:
C4b (Homo sapiens) [1] = target: C4b (Homo sapiens) (UniProt P0C0L4)
C4b (Homo sapiens) [2] = target: C4b (Homo sapiens) (UniProt P0C0L4); remark: listed apart in the source

UniProt P0C0L4, sequence (P0C0L4 20-1744, chain 1 of 2): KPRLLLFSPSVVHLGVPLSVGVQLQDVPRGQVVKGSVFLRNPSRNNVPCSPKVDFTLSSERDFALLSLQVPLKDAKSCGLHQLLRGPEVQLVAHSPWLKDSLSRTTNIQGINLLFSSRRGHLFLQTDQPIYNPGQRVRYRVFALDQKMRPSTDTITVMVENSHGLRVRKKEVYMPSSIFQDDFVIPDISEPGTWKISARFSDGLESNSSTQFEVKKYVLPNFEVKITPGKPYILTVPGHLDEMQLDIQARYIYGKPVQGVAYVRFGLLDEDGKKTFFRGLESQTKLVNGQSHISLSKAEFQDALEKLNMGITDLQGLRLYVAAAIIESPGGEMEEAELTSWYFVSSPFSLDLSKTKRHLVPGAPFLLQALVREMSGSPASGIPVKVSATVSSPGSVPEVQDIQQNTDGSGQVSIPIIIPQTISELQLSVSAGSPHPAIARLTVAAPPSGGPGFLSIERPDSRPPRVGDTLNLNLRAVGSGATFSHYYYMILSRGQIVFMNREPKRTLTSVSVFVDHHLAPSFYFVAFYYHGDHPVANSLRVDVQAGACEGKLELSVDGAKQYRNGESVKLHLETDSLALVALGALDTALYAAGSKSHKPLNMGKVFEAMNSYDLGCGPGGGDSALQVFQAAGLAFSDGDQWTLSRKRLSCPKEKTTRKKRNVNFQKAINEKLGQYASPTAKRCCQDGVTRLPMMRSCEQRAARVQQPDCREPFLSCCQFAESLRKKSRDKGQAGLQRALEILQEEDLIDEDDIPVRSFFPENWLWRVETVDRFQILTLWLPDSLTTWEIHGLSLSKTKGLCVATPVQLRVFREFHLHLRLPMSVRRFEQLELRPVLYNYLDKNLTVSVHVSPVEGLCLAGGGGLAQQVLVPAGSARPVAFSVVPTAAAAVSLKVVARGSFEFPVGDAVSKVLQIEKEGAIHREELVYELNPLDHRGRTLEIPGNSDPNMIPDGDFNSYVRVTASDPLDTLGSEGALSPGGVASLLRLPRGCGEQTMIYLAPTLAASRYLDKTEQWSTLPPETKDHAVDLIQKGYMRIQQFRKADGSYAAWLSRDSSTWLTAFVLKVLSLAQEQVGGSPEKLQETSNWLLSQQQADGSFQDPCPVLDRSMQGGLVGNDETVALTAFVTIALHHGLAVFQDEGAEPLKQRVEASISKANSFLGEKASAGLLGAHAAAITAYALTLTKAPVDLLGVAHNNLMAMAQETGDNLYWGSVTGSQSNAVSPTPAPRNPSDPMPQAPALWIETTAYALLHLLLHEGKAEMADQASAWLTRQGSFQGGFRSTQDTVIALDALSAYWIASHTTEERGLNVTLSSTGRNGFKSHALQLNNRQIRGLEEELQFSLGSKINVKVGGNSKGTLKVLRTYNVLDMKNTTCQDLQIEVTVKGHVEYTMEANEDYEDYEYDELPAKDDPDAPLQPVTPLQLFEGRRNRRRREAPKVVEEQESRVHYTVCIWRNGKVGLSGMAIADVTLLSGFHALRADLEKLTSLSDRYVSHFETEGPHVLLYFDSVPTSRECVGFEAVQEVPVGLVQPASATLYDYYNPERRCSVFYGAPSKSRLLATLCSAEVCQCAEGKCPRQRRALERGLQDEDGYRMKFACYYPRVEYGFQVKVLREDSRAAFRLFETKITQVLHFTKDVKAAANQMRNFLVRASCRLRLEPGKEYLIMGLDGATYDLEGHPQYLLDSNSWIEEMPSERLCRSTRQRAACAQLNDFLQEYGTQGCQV
UniProt P0C0L4, sequence (P0C0L5 20-1744, chain 2 of 2, further chain): as the sequence (P0C0L4 20-1744, chain 1 of 2) above, with A888T, D1054G, P1101L, C1102S, L1105I, D1106H, N1157S, V1188A, L1191R, S1267A counted along it

| Substance | Kd (C4b (Homo sapiens) [1]) | Kd (C4b (Homo sapiens) [2]) |
| --- | --- | --- |
| Eap34 domains 3-4 (from UniProt Q99QS1) | 0.525 µM | – |
| Eap domain 3 or 4 (individual) domain 3 / domain 4 (from UniProt Q2FWW1) | – | 40 µM |
